Laboratory results as given in PMC3561323 (PLoS ONE, 2013).

Target: integrin linked kinase (ILK), full-length human (human, UniProt Q13418 1-452)
Experiment: SEC; purified IPPmin complex on a calibrated gel-filtration column (Superdex 200 10/300 GL); 20 mM Tris pH 7.5, 150 mM NaCl, 1 mM DTT
Settings: both partners purified

integrin linked kinase (ILK), full-length human, sequence (Q13418 whole entry): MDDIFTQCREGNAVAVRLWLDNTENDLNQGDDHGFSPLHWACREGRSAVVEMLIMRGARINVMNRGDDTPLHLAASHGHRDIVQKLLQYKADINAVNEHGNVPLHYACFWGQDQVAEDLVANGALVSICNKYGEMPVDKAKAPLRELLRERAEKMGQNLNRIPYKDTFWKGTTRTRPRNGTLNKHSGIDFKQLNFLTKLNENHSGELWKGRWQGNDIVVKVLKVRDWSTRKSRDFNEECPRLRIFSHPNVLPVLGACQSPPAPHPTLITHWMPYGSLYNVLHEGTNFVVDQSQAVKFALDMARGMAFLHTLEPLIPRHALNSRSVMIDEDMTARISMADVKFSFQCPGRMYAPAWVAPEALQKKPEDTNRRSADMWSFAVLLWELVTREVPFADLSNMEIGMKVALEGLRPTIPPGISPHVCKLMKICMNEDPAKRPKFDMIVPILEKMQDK

binding result: binds
B1: LIM1 domain of PINCH1 (domain or fragment, human, UniProt P48059 6-68, looked up)
chain: ASATCERCKGGFAPAEKIVNSNGELYHEQCFVCAQCFQQFPEGLFYEFEGRKYCEHDFQMLFA
